From patent US10668186B2, “Quenched coating” (Original G B.V., priority 2014, dated 2020)
Read-outs that look alike come from different tables or passages of the source. Primed or numbered codes have the meaning given here. Where no end group is shown, it is not given here. code X = (S)-5-azido-2-(Fmoc-amino)pentanoic acid (δ-azido-L-norvaline); Orn(N3) = [N-]=[N+]=NCCC[C@H](N)C(=O)O; IRDye800CW′ = not defined here; IRDyeQC‑1 = quencher label; IRDye800RS = dye label; Pol = MeO-PEG-alkyne

Columns and labels:
[1] = tested on: S. aureus; experiment: Coated catheter S. aureus challenge, near infrared fluorescence imaging; type: cell-based; conditions: for Coating response to S. aureus challenge: coated Foley silicone catheter, 2×10^6 CFU ml^−1 S. aureus, 4 hours, excitation 710 nm, emission 800 nm; for detection of S. aureus (in words): coated catheter, S. aureus challenge
Experimental: The catheter used was a 14F silicone Foley Catheter which was provided in 6 mm lengths and having a diameter of 4.2 mm. An aqueous slurry of each polymer coating was prepared and each piece of catheter plunged into the slurry mixture. The coated catheters were stored at 20° C. in the dark for 15 minutes prior to repeating the dipping procedure. The process was repeated four times in total. After the final coating, the coated catheters were stored at 35° C. for 48 hours to facilitate drying of the coating. Each coated catheter and one none coated catheter as control, were incubated in the presence of 2×10^6 colony-forming units (CFU) ml^−1 of S. auereus for 4 hours. […] The results obtained from the IVIS Spectrum and IVIS Lumina II were analyzed with Living Image 4.2. (Caliper L S, Hopkinton Mass., USA). Optimal detection limits were set to the lowest signal at which positive signal was effortlessly discriminated from negative controls. Signal intensity was determined by drawing regions of interests (ROI's) and measuring average counts in these regions. The signal was corrected for background by subtracting the background signal from the signal of interest, referred to in the text as net counts. A strong near infrared signal was, attributed to the first fluorescent agent.

[2] = target: V8 protease (Endoproteinase Glu-C from Staphylococcus aureus V8) (Staphylococcus aureus, UniProt P0C1U8); conditions: in solution, excitation 720 nm
Chain of V8 protease (Endoproteinase Glu-C from Staphylococcus aureus V8) (P0C1U8 69-336): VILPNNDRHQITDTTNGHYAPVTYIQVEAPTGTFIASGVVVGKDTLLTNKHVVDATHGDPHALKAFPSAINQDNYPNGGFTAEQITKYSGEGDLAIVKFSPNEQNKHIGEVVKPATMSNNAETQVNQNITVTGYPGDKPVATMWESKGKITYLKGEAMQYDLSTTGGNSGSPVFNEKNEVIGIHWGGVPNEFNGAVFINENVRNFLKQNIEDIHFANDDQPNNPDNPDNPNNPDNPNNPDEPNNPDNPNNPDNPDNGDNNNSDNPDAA
Experimental: Bacterial protease was obtained from Sigma-Aldrich (Endoproteinase Glu-C from Staphylococcus aureus V8, P2922 SIGMA), also named ‘protease V8’ or ‘V8’ in this document.
The cleavage of peptide 1 in the presence of V8 protease and GranzymB protease was monitored in solution by luminescence spectroscopy. Photo-luminescence spectra were measured on a Perkin-Elmer Luminescence Spectrometer LS50 B. Spectra were recorded from 250 to 900 nm, using an excitation wavelength of 720 nm and applying a slit width of 15 nm.
The digestion in solution was performed in a glass vial. 100 μL of stock solution of peptide 1 (10 mg/mL) was diluted with 625 μL H2O and 250 μL 100 mM phosphate buffer solution (pH=7.8). A sample of 10 μL was taken at t=0. Then, 50 μL of V8 or Granzyme B protease stock solution (25 units, ±25 μg) was added, the mixture shaken and was kept at room temperature. […] At various time points (30 s, 2, 5, 10, 15, 20, 25, 30, 40, 50, 60, 90, 120, 150 and 180 min., and at 18H) a 10 μL incubate sample was taken and was diluted with 3 mL of water. The prepared diluted samples were measured by luminescence spectroscopy, so as to monitor the digestive cleavage of peptide 1. As blanks, cuvettes with water and the same amount of DMSO as the sample solution were used.

[3] = target: V8 protease (Staphylococcus aureus, UniProt P0C1U8); conditions: surface bound, Odyssey CLX, exciting at 800 nm
Chain of V8 protease (P0C1U8 69-336): as above
Experimental: The resulting solution (50 μL) was pipetted onto the glass slide, and the slide was kept in a humidified environment for 1H. The droplet was washed off by rinsing 3× with 1 mL DMSO:H2O 80/20; thereafter, the slide was placed in a washing solution of DMSO:H2O 80/20 and was gently agitated for 1 minute. The washing solution was rinsed off with water (5×1 mL) and the slide was dried by a flow of nitrogen.
Li-Cor Odyssey CLX equipment was used on site at Westburg (Leusden, N L; Timo Kreike, Moniek Kors). All Odyssey CLX measurements were taken by exciting at 800 nm.

[4] = target: T1, Granzyme B, Human, Recombinant (Homo sapiens, UniProt P10144); experiment: Digestion of peptide 1 in solution monitored by luminescence spectroscopy (Granzyme B); type: biochemical; conditions: presence of Granzyme B
T1 construct: purchased MerckMillepore 368043; host or cells: E. coli
T1 sequence (P10144 21-247): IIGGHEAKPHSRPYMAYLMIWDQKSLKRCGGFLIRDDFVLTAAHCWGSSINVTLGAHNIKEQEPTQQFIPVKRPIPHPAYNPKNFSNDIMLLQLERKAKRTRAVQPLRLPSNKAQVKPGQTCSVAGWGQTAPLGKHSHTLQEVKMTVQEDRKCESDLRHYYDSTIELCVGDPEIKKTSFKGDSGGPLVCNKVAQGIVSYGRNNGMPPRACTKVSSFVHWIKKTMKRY
From the text: Human recombinant protease was obtained from MerckMillepore (368043 Granzyme B, Human, Recombinant, E. coli).

| Substance | Coating response to S. aureus challenge [1] | detection of S. aureus (in words) [1] | background fluorescence ([2]; absence of V8 protease) | fluorescence intensity ([2]; after 30 s of adding V8 protease) [AU] | fluorescence intensity ([2]; within 6 minutes of adding V8 protease) [AU] | intensity ([3]; before V8 protease) | intensity ([3]; in the presence of V8 protease) [units] | cleavage by Granzyme B [4] | background fluorescence ([4]; maintained throughout the experiment) [AU] |
| --- | --- | --- | --- | --- | --- | --- | --- | --- | --- |
| (IRDye800RS)-KG-(Pol)-X-LLEFRIVAK(IRDye800RS) ({IRDye800RS-Lys-Gly-Pol-code X}-LLEFRIVAK(IRDye800RS); also: MeO-PEG) [Example 5.3] | + | only a weak signal is detected |  |  |  |  |  |  |  |
| Ac-(IRDye800CW)CG-(Pol)-X-LLEFRIVAK(IRDyeQC-1) ({Ac-Cys(IRDye800CW)-Gly-Pol-code X}-LLEFRIVAK(IRDyeQC‑1); also: MeO-PEG) [Example 5.4] | ++ | very good detection |  |  |  |  |  |  |  |
| Ac-X-[K(IRDye800RS)]-GLLEFRIVAK(IRDye800RS)-amide ({Ac-Orn(N3)-K(IRDye800RS)}-GLLEFRIVAK(IRDye800RS)-NH2) [Peptide 1] |  |  | around 1 AU | 4 | 6 | circa 6000 units | 25000 | not cut | 1 |
| G-(Pol)-X-LLEFRIVAC-IRDye800CW (LLEFRIVAC-{IRDye800CW′}; not fully specified (residue 9, N-terminus); also: MeO-PEG) [Example 5.2, comparative, no non-fluorescent agent, reference compound] | − | only a small change in intensity in emitted light is detected |  |  |  |  |  |  |  |
